In patent publication US20190389958A1 (published 2019):

Experiments:
human CXCR4 [1] = molecular target: T1, human CXCR4 (human, UniProt P61073 1-352); assay: flow cytometry
T1 chain: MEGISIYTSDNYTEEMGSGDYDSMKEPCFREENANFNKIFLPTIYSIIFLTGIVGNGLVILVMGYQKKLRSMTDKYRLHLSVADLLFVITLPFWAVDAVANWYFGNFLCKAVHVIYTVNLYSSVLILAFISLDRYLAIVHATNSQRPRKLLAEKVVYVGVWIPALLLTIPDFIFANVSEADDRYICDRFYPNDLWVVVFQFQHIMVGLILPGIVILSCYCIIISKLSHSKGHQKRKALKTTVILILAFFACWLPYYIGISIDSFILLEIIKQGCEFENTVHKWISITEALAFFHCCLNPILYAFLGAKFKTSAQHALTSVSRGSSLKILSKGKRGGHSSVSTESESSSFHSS

human CXCR4 [2] = molecular target: T1, human CXCR4; assay: flow cytometry
human CXCR4 [3] = molecular target: T1, human CXCR4; assay: flow cytometry; Batch2
human CXCR4 [4] = molecular target: T1, human CXCR4; assay: flow cytometry; Batch1
human CXCR4 [5] = molecular target: T1, human CXCR4; assay: flow cytometry; Batch1
human CXCR4 [6] = molecular target: T1, human CXCR4; assay: flow cytometry; Batch2
human CXCR4 [7] = molecular target: T1, human CXCR4; assay: flow cytometry; Batch1
human CXCR4 [8] = molecular target: T1, human CXCR4; assay: flow cytometry; Batch2

B1: V62.1-R108H (antibody, V domains shown)
VH: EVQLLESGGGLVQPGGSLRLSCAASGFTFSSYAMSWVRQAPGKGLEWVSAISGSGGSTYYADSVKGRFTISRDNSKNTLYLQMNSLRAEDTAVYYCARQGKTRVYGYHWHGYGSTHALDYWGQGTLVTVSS
VL: EIVLTQSPGTLSLSPGERATLSCRASQSVSSSYLAWYQQKPGQAPRLLIYGASSRATGIPDRFSGSGSGTDFTLTISRLEPEDFAVYYCQQSDYSYPFTFGQGTKVEIKR
Human CXCR4 [1]
  EC50: ~1.8 nM

B2: V62.1 (antibody, V domains shown)
VH: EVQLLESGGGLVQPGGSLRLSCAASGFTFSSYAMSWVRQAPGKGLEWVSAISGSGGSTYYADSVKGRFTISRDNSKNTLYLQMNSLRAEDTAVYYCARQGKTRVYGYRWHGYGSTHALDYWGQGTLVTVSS
VL: EIVLTQSPGTLSLSPGERATLSCRASQSVSSSYLAWYQQKPGQAPRLLIYGASSRATGIPDRFSGSGSGTDFTLTISRLEPEDFAVYYCQQSDYSYPFTFGQGTKVEIKR
Human CXCR4 [2]
  EC50: ~2.2 nM

B3: V62.1-R108H-m80 (antibody, V domains shown)
VH: EVQLLESGGGLVQPGGSLRLSCAASGFTISPYSITWVRQAPGKGLEWVSQINSYNGKTYYADSVKGRFTISRDNSKNTLYLQMNSLRAEDTAVYYCARQGKTRVYGYHWHGYGSTHALDYWGQGTLVTVSS
VL: EIVLTQSPGTLSLSPGERATLSCRASQSVSSSYLAWYQQKPGQAPRLLIYGASSRATGIPDRFSGSGSGTDFTLTISRLEPEDFAVYYCQQSDYSYPFTFGQGTKVEIKR
Human CXCR4 [3]
  EC50: ~1.2 nM
Human CXCR4 [4]
  EC50: ~1.2 nM

B4: V62.1-R108H-m43-m38 (antibody, V domains shown)
VH: EVQLLESGGGLVQPGGSLRLSCAASGFTFSSYAMSWVRQAPGKGLEWVSAISGSGGGSTRYADSVKGRFTISRDNSKNTLYLQMNSLRAEDTAVYYCARQGKTRVYGYHWHGYGSTHALDYWGQGTLVTVSS
VL: EIVLTQSPGTLSLSPGERATLSCRASQSVSSSYLAWYQQKPGQAPRLLIYGASSRATGIPDRFSGSGSGTDFTLTISRLEPEDFAVYYCQQWSSDSVTFGQGTKVEIKR
Human CXCR4 [5]
  EC50: ~0.6 nM
Human CXCR4 [6]
  EC50: ~1.1 nM

B5: V62.1-R108H-m47-m38 (antibody, V domains shown)
VH: EVQLLESGGGLVQPGGSLRLSCAASGFTFSSYAMSWVRQAPGKGLEWVSAISGSGGTRYADSVKGRFTISRDNSKNTLYLQMNSLRAEDTAVYYCARQGKTRVYGYHWHGYGSTHALDYWGQGTLVTVSS
VL: EIVLTQSPGTLSLSPGERATLSCRASQSVSSSYLAWYQQKPGQAPRLLIYGASSRATGIPDRFSGSGSGTDFTLTISRLEPEDFAVYYCQQWSSDSVTFGQGTKVEIKR
Human CXCR4 [7]
  EC50: ~0.7 nM
Human CXCR4 [8]
  EC50: ~0.8 nM
